assay: label from the status in PepcDB records

Q: Which protein production does the source give for “MAYAHVFASLTISTISLRRFLPRLHRNHSVKPNSRIICNLKLNYSAGKFREMGLSRSVELDQFITSEEEEGEAEEIGEGFFEAIEELERMTREPSDILEEMNHRLSSRELQLMLVYFAQEGRDSWCTLEVFEWLKKENRVDEEIMELMVSIMCGWVKKLIEDECNAHQVFDLLIEMDCVGLKPGFSMMDKVIALYCEMGKKESAVLFVKEVLRRRDGFGYSVVGGGGSEGRKGGPVGYLAWKFMVDGDYRKAVDMVMELRLSGLKPEAYSYLIAMTAIVKELNSLGKTLRELKRFARAGFVAEIDDHDRVLIEKYQSETLSRGLQLATWAVEEGQENDSIIGVVHERLLAMYICAGRGPEAEKQLWKMKLAGREPEADLHDIVMAICASQKEVNAVSRLLTRVEFMGSQRKKKTLSWLLRGYVKGGHFEEAAETLVSMIDSGLHPEYIDRVAVMQGMTRKIQRPRDVEAYMSLCKRLFDAGLPKTNLNDLRTSVSSYVFLKLSESEGESKAGGRNKNHRGKIVMELEDPTMADSTIKLTVKFGGKSIPLSVSPDCTVKDLKSQLQPITNVLPRGQKLIFKGKVLVETSTLKQSDVGSGAKLMLMASQGLHQGEGPILKEASIRPISRTVVSDKVDQRKPSVLVDKNRTDRWKATGVIALAQANLKEIPEEVWDCGSGVRVLDISENFIKEVPAKISSFGSMQKLFLQGNGLSDESIQWEGIASLKRLMLLSISHNNLTVLPSAMGSLTSLRQLDVTNNKLTSLPNELGLLTQLEILKANNNRITSLPESIGNCSFLMEVDLSANIISELPETFTKLRNLKTLELNNTGLKTLPSALFKMCLQLSTLGLHNTEITVEFLRQFEGYDDFDERRRTKHQKQLDFRVVGSGQFDEGADKSW” here?
A: Its protein production is “failed”.

Q: For “MAYDGLFTKKMVESLQFLTTGRVHKINQPDNDTILMVVRQNRQNHQLLLSIHPNFSRLQLTTKKYDNPFNPPMFARVFRKHLEGGIIESIKQIGNDRRIEIDIKSKDEIGDTIYRTVILEIMGKHSNLILVDENRKIIEGFKHLTPNTNHYRTVMPGFNYEAPPTQHKINPYDITGAEVLKYIDFNAGNIAKQLLNQFEGFSPLITNEIVSRRQFMTSSTLPEAFDEVMAETKLPPTPIFHKNHETGKEDFYFIKLNQFNDDTVTYDSLNDLLDRFYDARGERERVKQRANDLVRFVQQQLHKYQNKLAKLIEEYEQSKNKDTEQLYGELITANIYRIKQGDKEVTALNYYTNEEVVIPLNPTKSPSANAQYYYKQYNRMKTRERELQHQIQLTKDNIDYFSTIEQQLHHISVHDIDEIRDELAEQGFMKQRKNQTKKKKAQ”, which protein production is on record?
A: Its protein production is “not failed”.

Q: Which protein production does the source give for “MAYLVFAYLVGSLVAGLLFFPEVRGKDLPGGSGVFRRKGPWAALLAVAFDLGKGALVALLTPEAYLPWAGALLVAGHTWPVFFRFRGGGGIAPSLGFFLVWRPAETLWATLFGLGVAGLYHLLFWRRRRKGIYPIPFGAIFGYLLLVYTLSGEARLGALLVAGVVLLRGLQILAGRW” here?
A: The protein production was “failed”.

Q: With “MAYRKQLTRLKAPYLKRILLDPGRVEDWEKYPWNLPLFRGREFELEFTAPITIIVGENGTGKSTLLEAIGALAGYDEAGGGKGYMPVDHSRAIDKSGAALADNFRCHWLPKVTAGWFFRAESFYSVARYLDEAARESGATPPDFLSWSHGEGFIRFFEERCRRQGIYILDEPESALSPSRQIELLKMLRRMDQSGTAQVIMATHSPLLMACPGARLFRISRFGLEPADFRDTDHFRMLRDFSNDPDGFLAEALYEDEA” as the sequence, how does the protein production read?
A: The protein production was “failed”.

Q: Which protein production does the source give for “MAYSYTEKKRIRKDFSKLPDVMDVPYLLAIQLDSYREFLQAGATKEQFRDVGLHAAFKSVFPIISYSGNAALEYVGYRLGEPAFDVKECVLRGVTFAVPLRVKVRLIIFDRESSNKAIKDIKEQEVYMGEIPLMTENGTFIINGTERVIVSQLHRSPGVFFDHDRGKTHSSGKLLYSARIIPYRGSWLDFEFDPKDCVFVRIDRRRKLPASVLLRALGYSTEEILNAFYATNVFHIKGETLNLELVPQRLRGEVASIDIKDGSGKVIVEQGRRITARHINQLEKAGVSQLEVPFDYLIGRTIAKAIVHPATGEIIAECNTELTLDLLAKVAKAQVVRIETLYTNDIDCGPFISDTLKIDNTSNQLEALVEIYRMMRPGEPPTKEAAETLFGNLFFSAERYDLSAVGRMKFNRRIGRTEIEGPGVLSKEDIIDVLKTLVDIRNGKGIVDDIDHLGNRRVRCVGEMAENQFRVGLVRVERAVKERLSMAESEGLMPQDLINAKPVAAAIKEFFGSSQLSQFMDQNNPLSEITHKRRVSALGPGGLTRERAGFEVRDVHPTHYGRVCPIETPEGPNIGLINSLATYARTNKYGFLESPYRVVKDSLVTDEIVFLSAIEEADHVIAQASATLNEKGQLVDELVAVRHLNEFTVKAPEDVTLMDVSPKQVVSVAASLIPFLEHDDANRALMGSNMQRQAVPTLRADKPLVGTGMERNVARDSGVCVVARRGGVIDSVDASRVVVRVADDEVETGEAGVDIYNLTKYTRSNQNTCINQRPLVSKGDVVARGDILADGPSTDMGELALGQNMRVAFMPWNGFNFEDSICLSERVVQEDRFTTIHIQELTCVARDTKLGPEEITADIPNVGEAALNKLDEAGIVYVGAEVQAGDILVGKVTPKGETQLTPEEKLLRAIFGEKASDVKDTSLRVPTGTKGTVIDVQVFTRDGVERDSRALSIEKMQLDQIRKDLNEEFRIVEGATFERLRAALVGAKAEGGPALKKGTEITDDYLDGLERGQWFKLRMADDALNEQLEKAQAYISDRRQLLDDKFEDKKRKLQQGDDLAPGVLKIVKVYLAIKRRIQPGDKMAGRHGNKGVVSVIMPVEDMPHDANGTPVDIVLNPLGVPSRMNVGQILETHLGLAAKGLGEKINRMLEEQRKVAELRKFLHEIYNEIGGREENLDELGDNEILALAKNLRGGVPMATPVFDGAKEREIKAMLKLADLPESGQMRLFDGRTGNQFERPTTVGYMYMLKLNHLVDDKMHARSTGSYSLVTQQPLGGKAQFGGQRFGEMEVWALEAYGAAYTLQEMLTVKSDDVNGRTKMYKNIVDGDHRMEAGMPESFNVLIKEIRSLG” here?
A: Its protein production is “failed”.

Q: With “MAYVTLYPNLILEALGKVRYPGTGKDLVSAGMVEDDIRIDGNKVSFSLIFDKANDPFIKSVVKAAESAILTYISEDVNIKGNISVKSKQAIPAPPAKLLPGVKNIIAVFSGKGGVGKSTVTANLAVSLAKSGYRVGLLDADIFGPSMPKMFHCEESRPVLEEVDGRELIVPEEVMGVKILSIGFFVDPDNAVLWRGSMAGNALTQLIRDANWGELDYFLIDMPPGTSDIHLTLVQTLAITGAVVVTTPQDVALADARKGISMFVGEKINVPVLGLVENMSWFTPAELPQNKYYIFGRDGGKNLAEELNIPLLGQIPLVQGICQSGDEGIPVAVRDDSMMGIAFRELAARVVEQVDYRNEHLDPTKVVEVAHR” as the sequence, how does the protein production read?
A: The protein production was “failed”.

Q: Which protein production does the source give for “MCDKDIYNNKEMIILNKQQVTKAIEKVLNSSKIGVLSTAHHNKPNSRYMVFYNDDLNLYTKTNVNSLKVEEIENNPDAHILLGYNETTNNSFVEIDATIEVVKDQKVIDWLWETQDKTFFNSKEDPELCVLKVIPRSIKLMNDDELDTPATIEL” here?
A: The protein production was “not failed”.

Q: Which protein production does the source give for “MCEHHHAAKHILCSQCDMLVALPRLEHGQKAACPRCGTTLTVAWDAPRQRPTAYALAALFMLLLSNLFPFVNMNVAGVTSEITLLEIPGVLFSEDYASLGTFFLLFVQLVPAFCLITILLLVNRAELPVRLKEQLARVLFQLKTWGMAEIFLAGVLVSFVKLMAYGSIGVGSSFLPWCLFCVLQLRAFQCVDRRWLWDDIAPMPELRQPLKPGVTGIRQGLRSCSCCTAILPADEPVCPRCSTKGYVRRRNSLQWTLALLVTSIMLYLPANILPIMVTDLLGSKMPSTILAGVILLWSEGSYPVAAVIFLASIMVPTLKMIAIAWLCWDAKGHGKRDSERMHLIYEVVEFVGRWSMIDVFVIAVLSALVRMGGLMSIYPAMGALMFALVVIMTMFSAMTFDPRLSWDRQPESEHEES” here?
A: The protein production was “failed”.

Q: With “MCEYTYSNGKKCRRKPLKGSKYCSLHIPFEEGELLYGDRIKYIKKRAFERALERGIRNFEGVKLYDVIIVGKEINEALIFRNSIIKRLVIVTSKIKSLSLIDTTIDTLVIVNSEVDFFYVNGGSIYGVSICSVKFSSSILFRDSSIRYVMINSTEFSPKEVTTEEEFGEKVRIAGRIELANLKDVRRIALNSKYPLMAKIMEEFGIKLSLDRKKPVRVHTLTITGVEFDESPRFRKQVRIFINRFSGQLIFENLSVPGHVEIVNSRVRYPEFVHVIIHNNLVLRNTRLYSDENWNLAYLPNLLAELNVYGFIVIDNCQFNNPYLAEVFYRIARTTWEGSGDKENADEYYYLEMLARRKKVIQHYRKGPRTLKKMVKLLEVLFEFLFADLTCKYGTDWKRPVFLWMGLVIFVFPVFYALTKSVVPTSSLFDYVYFSIVTATTLGYGDLHPIGVGKVIASIEAIFGMFMWAVFLTVFARKYMR” as the sequence, how does the protein production read?
A: Its protein production is “failed”.

Q: Which protein production does the source give for “MCGDCVEKEYPNRGNTCLENGSFLLNFTGCAVCSKRDFMLITNKSLKEEDGEEIVTYDHLCKNCHHVIARHEYTFSIMDEFQEYTMLCLLCGKAEDTISILPDDPRQMTLLF” here?
A: Its protein production is “failed”.

Q: For “MCMLEPSKIFKALSNPINLKILTLLRSSSFHPRELARILNRDETDISRRLRQLERLGLIKGKWERVDGKNVRVYSLKVSEIRIFMHPTKLEVKVGENESYEAPIEWESSPRVEVFVGRKRELSIIRNAKGVVVIYGIAGIGKTSLAAKAFPNAYWYNVTGLEDFKYFAWQLGLFLSSIGFEDLLEYLRGGGNNENDIFKLITEGIEKTGAIIIIDDFHKFQDEKVNYLLSYLAPRIKKGKVIITTRIRPNLGNEGVTYVNLKGLNPEEAYSLAREKEKSMTPEEFAKLYKLTFGHPLMLNLILESSEILATGKDTVFNFLFEEVYQMLNEEEKDLLSILSLFDEPIEYEGIKFLYDRNPFVPLYSLMKKGLIEKKGEKYFVHDMVREFVREVSNQEEKEVYLRHVNFLLKSKTPINFLRAFKYAIKVGSSELIRNLVELRVKEFYRIIVDFPRMYQRLLMEVEDNPYAKIEIAIIEVQRGLFEKAIKLLKEAEPYVDEFFKCEIYSWLADAYMELENLEKAERYLKKTKEIVEKINDMYAWFSYYAEKTKYEYYKENSREALKSALKELEIIRKIGDPEKEGLVLLHVGDIYLHMGNYEKGISYYQEALKMAKAYGIKFLEHISYMELAKGYYQLKLYEKASEYSEKAANYFLMIRNYRRATDAMAYGSVSYIATKNLEKAEKFAKEMIRIAQSTDYPLAWAGYIFLAAVDFLKGDDWREDYNLGKAHLKEYPWLFEAVLDELKKVFDLSNFK”, which protein production is on record?
A: The protein production was “failed”.

Q: For “MCQTCLSWYARCVAPYFVHAGCSAGAFSQMRRRVIPRAEGVVVEVGFGSGLNLPYYDAARVERLVGIDPDGTMLGLAAPKSRAMPFAVECIRAGGESLPLADGIADTVVVTYAFCTIPDPQAALSEIRRVLKPRGRLIFIEHGQAEGPRGRRWQQRLNRLWGSIAGGCHLNRDPLRLIGGAGFRLLEVQHGRFPLPLWQLGSHHAGIAAAG”, which protein production is on record?
A: Its protein production is “failed”.

Q: Which protein production does the source give for “MCRSGSRCCPPIKLRVACVVAASILTARAGTYAIAACYVAALRVMDQRIAMSLQVLGAGLGRTGTLSLKFALEHLGFGPCYHATEVAANMRTALPLWNAAERGAADWSAIFAGYRSSTDHPGCYYWRQLIEVYPQAKVVLTVRDPDSWFESVTQTILMPGRKSTFVGPEGETFSTFLKQQMGGRSQDRAFMVDYFNRWNQAVIDTVPADRLLVFSARQGWAPLCSFLGVPVPHKPYPHLHARPRLRWFTRGLRLPDDVAARERHVREYLEYLREDLFG” here?
A: The protein production was “failed”.

Q: With “MCTGTKSFFLLQRFKLKEDVTMEQKPVLDVNEVPKPGKWLFLSIQHLFAMFGSTVLVPFLTGLNPSVALISSGLGTLAFLLITKGQVPAYLGSSFAFIAPIITAKTAGGPGAAMLGGLLAGLVYILISLGIKKSGSEWIMKLLPPIVVGPVVMVIGLALAHTAVNMAMNGADGKYSFTHFSVALVTLAITIICSIFGRGFFSIIPVLLGIIGGYIFAYFQGLVDLKPVAEAKWFVVPDFTVPFVTYTPEFSWKIVLLMVPVALVTISEHIGHQIVLGNVIKRDLIEKPGLHRSIFGDGVATLIASLIGGPPNTTYGENIGVLAITRAYSVYLFIGSAVFAIMFGFIGKISALIHSIPTPVMGGVSILLFGVIASSGLRMMVDDKTDLSDKRNLMIASVILVIGIGGAVLHVGESFQVEGMALAAIVGVLLNLLLPETKQIKQSKQIAS” as the sequence, how does the protein production read?
A: Its protein production is “failed”.
